Data taken from US20210340530A1 (INTELLIA THERAPEUTICS, published 2021).

Assays:
[1] = molecular target: T1, … (VLD) WT1 peptide pulsed on target cells (HLA-02.01 positive T2 cell line; OCI-AML3); experiment: cell-based or functional assay
[2] = molecular target: T2, … (RMF) WT1 peptide pulsed on target cells (HLA-02.01 positive T2 cell line; OCI-AML3); experiment: cell-based or functional assay
[3] = molecular target: T1, … (VLD) WT1 peptide pulsed on target …; experiment: cell-based or functional assay; remark: listed apart in the source
[4] = molecular target: T2, … (RMF) WT1 peptide pulsed on target …; experiment: cell-based or functional assay; remark: listed apart in the source
[5] = molecular target: T1, … (VLD) WT1 peptide pulsed on target …; experiment: cell-based or functional assay; remark: listed apart in the source
[6] = molecular target: T1, … (VLD) WT1 peptide pulsed on target …; experiment: cell-based or functional assay; remark: listed apart in the source
[7] = molecular target: T2, … (RMF) WT1 peptide pulsed on target …; experiment: cell-based or functional assay; remark: listed apart in the source
[8] = molecular target: T3, VLD-Tetramer (pMHC tetramer with WT1 peptide …); experiment: flow cytometry, VLD-Tetramer staining of engineered T cells; TRAC + TRBC RNP
T3 construct: Staining reagent; also called VLD (Wilms' tumor antigen) tetramer; TCR specific pMHC tetramer
Protocol: (§1) Four to 12 days after RNP nucleofection, edited T cells (200 ul/200,000 cells) were collected in a 96 well round bottom plate and spun down at 500 g for 5 minutes. Cells were then resuspended in an antibody mixture containing a combination of antibodies targeting CD3, CD4, CD8, CD45RO, CD45RA, CD27, CCR7, CD62L, and/or the TCR specific pMHC tetramer or TCR specific Vbeta chain antibody. The mixture was incubated for 45 minutes at room temperature in the dark. Samples were spun down at 500 g for 5 minutes, cell pellets collected, and resuspended in 1:10,000 DAPI (Biolegend—#422801) in FACS buffer. Flow cytometry was then performed using the cytoflex according to the manufacturer's instructions.
(§2) T cells were evaluated with additional engineered TCRs for the impact of endogenous beta chains on pairing of both the inserted alpha chain and inserted beta chain. The experiment was performed as described herein except tetramer staining was used to measure MFI and the AAV inserts in Table 31 were used for transduction.

[9] = molecular target: T3, VLD-Tetramer (pMHC tetramer with WT1 …); experiment: flow cytometry, VLD-Tetramer staining of engineered T cells; TRAC RNP only
Protocol: as §1, §2

[10] = molecular target: T1, … (VLD) WT1 peptide pulsed on target …; experiment: cell-based or functional assay; remark: listed apart in the source

B1: TCR-G (WT1-specific T-cell receptor) (TCR, V domains shown)
V domain 1: DQQVKQNSPSLSVQEGRISILNCDYTNSMFDYFLWYKKYPAEGPTFLISISSIKDKNEDGRFTVFLNKSAKHLSLHIVPSQPGDSAVYFCAARGQGNLIFGKGTKLSVKP
V domain 2: EAGVAQSPRYKIIEKRQSVAFWCNPISGHATLYWYQQILGQGPKLLIQFQNNGVVDDSQLPKDRFSAERLKGVDSTLKIQPAKLEDSAVYLCASSLYRGEQYFGPGTRLTVTE
notes: also called AV15-TCR-G
Question: Which results are given for B1?
Answer: Caspase 3/7 integrated intensity; TRAC only; 0 nM VLD; T2 [1]: 12200; Caspase 3/7 integrated intensity; TRAC only; 0.005 nM VLD; T2 [1]: 21000; Caspase 3/7 integrated intensity; TRAC only; 0.05 nM VLD; T2 [1]: 199000; Caspase 3/7 integrated intensity; TRAC only; 0.5 nM VLD; T2 [1]: 1.01e+06; Caspase 3/7 integrated intensity; TRAC only; 5 nM VLD; T2 [1]: 1.14e+06; Caspase 3/7 integrated intensity; TRAC only; 50 nM VLD; T2 [1]: 1.28e+06; Caspase 3/7 integrated intensity; TRAC only; 500 nM VLD; T2 [1]: 1.31e+06; Caspase 3/7 integrated intensity; TRAC/TRBC; 0 nM VLD; T2 [1]: 12400; Caspase 3/7 integrated intensity; TRAC/TRBC; 0.005 nM VLD; T2 [1]: 21000; Caspase 3/7 integrated intensity; TRAC/TRBC; 0.05 nM VLD; T2 [1]: 311000; Caspase 3/7 integrated intensity; TRAC/TRBC; 0.5 nM VLD; T2 [1]: 964000; Caspase 3/7 integrated intensity; TRAC/TRBC; 5 nM VLD; T2 [1]: 1.26e+06; Caspase 3/7 integrated intensity; TRAC/TRBC; 50 nM VLD; T2 [1]: 1.04e+06; Caspase 3/7 integrated intensity; TRAC/TRBC; 500 nM VLD; T2 [1]: 1.19e+06; Caspase 3/7 integrated intensity; TRAC only; 500 nM RMF; T2 [2]: 4950; Caspase 3/7 integrated intensity; TRAC/TRBC; 500 nM RMF; T2 [2]: 6800; % CD4+ CD107a+; TRAC/TRBC; 0 nM VLD; T2 [3]: 4.62%; % CD4+ CD107a+; TRAC/TRBC; 0.005 nM VLD; T2 [3]: 5.06%; % CD4+ CD107a+; TRAC/TRBC; 0.05 nM VLD; T2 [3]: 4.23%; % CD4+ CD107a+; TRAC/TRBC; 0.5 nM VLD; T2 [3]: 4.74%; % CD4+ CD107a+; TRAC/TRBC; 5 nM VLD; T2 [3]: 4.44%; % CD4+ CD107a+; TRAC/TRBC; 50 nM VLD; T2 [3]: 4.52%; % CD8+ CD107a+; TRAC/TRBC; 0 nM VLD; T2 [3]: 3.15%; % CD8+ CD107a+; TRAC/TRBC; 0.005 nM VLD; T2 [3]: 12.2%; % CD8+ CD107a+; TRAC/TRBC; 0.05 nM VLD; T2 [3]: 34.2%; % CD8+ CD107a+; TRAC/TRBC; 0.5 nM VLD; T2 [3]: 53.3%; % CD8+ CD107a+; TRAC/TRBC; 5 nM VLD; T2 [3]: 65.8%; % CD8+ CD107a+; TRAC/TRBC; 50 nM VLD; T2 [3]: 73.2%; % CD4+ CD107a+; TRAC/TRBC; 50 nM RMF; T2 [4]: 4.67%; % CD8+ CD107a+; TRAC/TRBC; 50 nM RMF; T2 [4]: 2.82%; IL2 release; TRAC only; 0 nM VLD; T2 [5]: 338 pg/mL; IL2 release; TRAC only; 0.005 nM VLD; T2 [5]: 326 pg/mL; IL2 release; TRAC only; 0.05 nM VLD; T2 [5]: 284 pg/mL; IL2 release; TRAC only; 0.5 nM VLD; T2 [5]: 305 pg/mL; IL2 release; TRAC only; 5 nM VLD; T2 [5]: 442 pg/mL; IL2 release; TRAC only; 50 nM VLD; T2 [5]: 1050 pg/mL; IL2 release; TRAC only; 500 nM VLD; T2 [5]: 1570 pg/mL; IL2 release; TRAC/TRBC; 0 nM VLD; T2 [5]: 306 pg/mL; IL2 release; TRAC/TRBC; 0.005 nM VLD; T2 [5]: 196 pg/mL; IL2 release; TRAC/TRBC; 0.05 nM VLD; T2 [5]: 198 pg/mL; IL2 release; TRAC/TRBC; 0.5 nM VLD; T2 [5]: 248 pg/mL; IL2 release; TRAC/TRBC; 5 nM VLD; T2 [5]: 351 pg/mL; IL2 release; TRAC/TRBC; 50 nM VLD; T2 [5]: 764 pg/mL; IL2 release; TRAC/TRBC; 500 nM VLD; T2 [5]: 1200 pg/mL; % CD4+ TNFa+ IFNg+; TRAC/TRBC; 0 nM VLD; T2 [6]: 2.1%; % CD4+ TNFa+ IFNg+; TRAC/TRBC; 0.005 nM VLD; T2 [6]: 1.6%; % CD4+ TNFa+ IFNg+; TRAC/TRBC; 0.05 nM VLD; T2 [6]: 0.9%; % CD4+ TNFa+ IFNg+; TRAC/TRBC; 0.5 nM VLD; T2 [6]: 0.6%; % CD4+ TNFa+ IFNg+; TRAC/TRBC; 5 nM VLD; T2 [6]: 0.2%; % CD4+ TNFa+ IFNg+; TRAC/TRBC; 50 nM VLD; T2 [6]: 0.1%; % CD8+ TNFa+ IFNg+; TRAC/TRBC; 0 nM VLD; T2 [6]: 0.4%; % CD8+ TNFa+ IFNg+; TRAC/TRBC; 0.005 nM VLD; T2 [6]: 7.6%; % CD8+ TNFa+ IFNg+; TRAC/TRBC; 0.05 nM VLD; T2 [6]: 28.7%; % CD8+ TNFa+ IFNg+; TRAC/TRBC; 0.5 nM VLD; T2 [6]: 46.5%; % CD8+ TNFa+ IFNg+; TRAC/TRBC; 5 nM VLD; T2 [6]: 63.1%; % CD8+ TNFa+ IFNg+; TRAC/TRBC; 50 nM VLD; T2 [6]: 71.4%; % CD4+ TNFa+ IFNg+; TRAC/TRBC; 50 nM RMF; T2 [7]: 2.2%; % CD8+ TNFa+ IFNg+; TRAC/TRBC; 50 nM RMF; T2 [7]: 0.4%; Mean % Tetramer+ (CD4+) [8]: 85.3%; Mean % Tetramer+ (CD8+) [8]: 81.9%; Mean Tetramer MFI (CD4+) [8]: 251000 MFI; Mean Tetramer MFI (CD8+) [8]: 190000 MFI; Mean % Tetramer+ (CD4+) [9]: 77.5%; Mean % Tetramer+ (CD8+) [9]: 73.6%; Mean Tetramer MFI (CD4+) [9]: 101000 MFI; Mean Tetramer MFI (CD8+) [9]: 102000 MFI; IFN-gamma release; TRAC/TRBC; 50 nM VLD; T2 [10]: 23600; IFN-gamma release; TRAC/TRBC; 500 nM VLD; T2 [10]: 31600; IFN-gamma release; only TRAC; 50 nM VLD; T2 [10]: 23700; IFN-gamma release; only TRAC; 500 nM VLD; T2 [10]: 27500
